How the values were obtained:
[1] = biological target: T1, Recombinant human renalase-1 expressed and secreted by pCDNA3-renalase-1-transfected 293T cells (human, UniProt Q5VYX0 18-342, limits assumed); assay: Western blot; lane 293 s/n taken as supernatant of renalase-expressing 293 cells, the text does not explain the lane
T1 construct: whole renalase-1 entry named; Present in cell culture supernatant; also called mammalian-expressed recombinant human renalase

[2] = biological target: T1, Recombinant human renalase-1 expressed …; assay: Immunoprecipitation from 293T supernatant with Protein G Sepharose, Western blot with biotinylated Ren 28-4
Protocol: All samples were incubated for 2 hours at 4° C. on a shaker. Immunoprecipitates were then washed 3 times with 1 mL RIPA buffer. 50 ul SDS-PAGE sample buffer (Fermentas) was added directly to Protein G-antibody immunoprecipitates and samples were heated to 95° C. for 5 minutes before running on SDS-PAGE. Actigel-antibody immunoprecipitates were washed a further 2 times in PBS prior to addition of 50 ul 0.1 M Glycine, pH 2.5. Samples were then agitated at room temperature for 10 minutes. Eluted proteins were recovered after centrifugation and resolved by SDS-PAGE. In all experiments 20 μL immunoprecipitate input material and 0.5 ng recombinant renalase positive control (RV11) were also loaded onto the gel.
In the example where a Protein G-mediated immunoprecipitation was used the western primary antibody was biotinylated-Ren 28-4 followed with a neutravidin-HRP secondary probe. In all cases where no immunoprecipitating antibody was added, no renalase was detected on the Western blot. All of the 1D and 1F antibodies (monoclonal and polyclonal) were able to immunoprecipitate bacterially- or mammalian-expressed recombinant human renalase.

[3] = biological target: T2, RPC1 reference standard peptide; assay: standard curve in the sandwich ELISA with m42-RNLS capture and electro-chemiluminescence detection
T2 construct: Synthetic: m42 peptide antigen linked to the m28 peptide antigen
T2 sequence (peptide, as listed by the source): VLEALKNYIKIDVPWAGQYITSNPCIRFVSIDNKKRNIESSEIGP
Protocol: (§1) In this example, human plasma samples were pretreated as follows: To 40 μL of plasma, 20 μL of 1N Citric acid was added and the samples were incubated on a shaker for 15 min at RT. The reaction solution was neutralized by adding 40 μL of 1M Na₂HPO₄. The samples were then stored on ice and further diluted with Diluent 100 to obtain readings in linear range. Assay protocol: Renalase levels in plasma was measured using the prototype assay on the Mesoscale platform (Meso Scale diagnostics, Gaithersburg, Md., USA) which employs proprietary electro-chemiluminescence detection methods combined with patterned arrays. Standard 96-well assay plate from Mesoscale Diagnostics were coated with 40 μL of Ren 1F 42-7 (m42-RNLS) capture antibody (2 μg/mL) and incubated for 2 hours on a shaker at room temperature. Following this, 150 μL of 3% Blocker A was added and the plate incubated on a shaker for 1 hour at room temperature. The plate was then washed with 150 μL of PBST (3 times); diluted acid activated samples and calibrator was added and the plate incubated for 2 hrs at RT on a shaker. […] The plate was washed and 2× read buffer was added and the plate imaged on SQ120 (Meso Scale Discovery). The raw data was analyzed using the Discovery Workbench software. […]

[4] = biological target: T3, RPC2 reference standard peptide; assay: as above
T3 construct: Synthetic: m42 peptide antigen linked to the m28 peptide antigen
T3 sequence (peptide, as listed by the source): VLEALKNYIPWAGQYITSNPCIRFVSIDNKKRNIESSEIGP
Protocol: as §1

T1 sequence (Q5VYX0 18-342 limits assumed): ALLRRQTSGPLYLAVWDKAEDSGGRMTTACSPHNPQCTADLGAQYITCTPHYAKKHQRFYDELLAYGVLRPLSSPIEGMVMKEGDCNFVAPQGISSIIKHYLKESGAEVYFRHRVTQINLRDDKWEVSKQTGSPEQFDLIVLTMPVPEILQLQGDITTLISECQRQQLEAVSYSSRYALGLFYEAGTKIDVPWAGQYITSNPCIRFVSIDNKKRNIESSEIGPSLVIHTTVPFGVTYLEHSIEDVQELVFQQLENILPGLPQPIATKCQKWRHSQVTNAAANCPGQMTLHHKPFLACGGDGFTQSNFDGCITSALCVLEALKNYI

Binder	binding result [1]	binding result [2]	binding result [3]	binding result [4]
anti-1D epitope monoclonal antibody 1D-28-4 (antibody, V domains shown, Rabbit monoclonal from hybridoma, purified on Protein A. Used biotinylated in some assays; also called Ren 1D 28-4; Ren1D 28-4) VH: QSVEESGGRLVTPGTPLTLTCTVSGFSLSSFAVGWVRQAPGKGLEYIGIISSVGITRYASWAAGRFTISKTSTTVDLKITSPTTEDTATYFCARYGYSGDVNRLDLWGQGTLVTVSS VL: AQVLTQTASPVSAAVGGTVTINCQASQSVYDNNNLAWYQQKPGQPPKQLIYGASTLASGVSSRFKGSGSGTQFTLTISGVQCDDAATYYCLGEFSCSSADCFAFGGGTEVVVKG	binds	–	–	–
anti-1F epitope monoclonal antibody 1F-26-1 (antibody, V domains shown, Rabbit monoclonal; Used biotinylated as detection antibody in the sandwich ELISAs; also called Ren 1F 26-1) VH: QSVKESEGGLFKPTDTLTLTCTVSGFSLSSYGVTWVRQAPGNGLEWIGLIGDRGTTFYASWAKSRSTITRNTNLNTVTLKMTRLTAADTATYFCARGSGYGARIWGPGTLVTVSS VL: AQVLTQTPSPVSAAVGGTVTINCQSSQSVYKNNYLAWYQQKPGQPPKLLIYETSKLASGVPPRFSGSGSGTQFTLTISSVQCDDAATYYCQGGYSGVDFMAFGGGTEVVVKG	–	binds	–	–

More lines, now with the values ahead:

binding result [1]	binding result [2]	binding result [3]	binding result [4]	Binder
binds	–	–	–	anti-1D epitope monoclonal antibody 1D-37-10 (antibody, V domains shown, Rabbit monoclonal; also called Ren 1D 37-10) VH: QSVEESGGRLVTPGGSLTLTCTVSGFSLSDYAIIWVRQAPGKGLEYIAIIGSSGDTFYATWAKGRFTISKTSTTVDLKMTSLTAADTATYFCAPRYAGTTDYHDAFDPWGPGTLVTVSS VL: EVVMTQTPASMEAPMGGTVTIKCQASQNIYNYLSWYQQKPGQPPKLLVYKASTLTSGVPSRFKGSGSGTQFTLTISDLECADAATYYCQINYSIYNHYNIIFGGGTEVVVKG
–	binds	binds	binds	anti-1F epitope monoclonal antibody 1F-42-7 (antibody, V domains shown, Rabbit monoclonal; also called Ren 1F 42-7; m42-RNLS) VH: QSVKESEGGLFKPTDTLTLTCTVSGFSLTTYGVTWVRQAPGNGLEWIGLIGDRGTTYYASWVNGRSTITRNTNLNTVTLKMTRLTAADTATYFCARGSGYGARIWGPGTLVTVAS VL: AQVLTQTPSPMSAALGGTVTINCQSSQTVYNNNYLSWYQQKPGQPPKLLIYETSKLSSGVPPRFSGSGSGTQFTLTISSVQCDDAATYYCQGGYSGVDFMAFGGGTEVVVKG

From patent US20200340031A1 (YALE UNIVERSITY, published 2020)
